Among the data in publication PMC10397247 are interaction score values, retold here.

One test deals with T1, 4H3414-bN.
T1 chain: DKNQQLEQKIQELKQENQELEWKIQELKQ
The experiment in a line: two-hybrid library CCNG1.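 Also: natural log of median RNA to DNA barcode read ratio; higher means stronger binding.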

The target of the next test is T2, 4H3631-bN.
T2 chain: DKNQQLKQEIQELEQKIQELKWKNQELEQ
The test can be described thus: two-hybrid library CCNG1.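 Also: natural log of median RNA to DNA barcode read ratio; higher means stronger binding.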

The target of the next test is T3, 4H3638-bN.
T3 chain: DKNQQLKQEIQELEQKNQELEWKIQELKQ
The experiment in a line: two-hybrid library CCNG1.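 Also: natural log of median RNA to DNA barcode read ratio; higher means stronger binding.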

The next test addresses T4, 4H3817-bN.
T4 chain: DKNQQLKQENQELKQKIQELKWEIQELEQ
The experiment in a line: two-hybrid library CCNG1.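 Also: natural log of median RNA to DNA barcode read ratio; higher means stronger binding.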

The next test has as its target T5, 4H3974-bN.
T5 chain: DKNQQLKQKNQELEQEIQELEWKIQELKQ
The test can be described thus: two-hybrid library CCNG1.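 Also: natural log of median RNA to DNA barcode read ratio; higher means stronger binding.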

The next test addresses T6, 4H570-bN.
T6 chain: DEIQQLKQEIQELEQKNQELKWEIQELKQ
The experiment in a line: two-hybrid library CCNG1.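 Also: natural log of median RNA to DNA barcode read ratio; higher means stronger binding.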

A further test has as its target T7, 4H584-bN.
T7 chain: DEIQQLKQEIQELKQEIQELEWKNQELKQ
The test can be described thus: two-hybrid library CCNG1.

The target of a further test is T8, 4H619-bN.
T8 chain: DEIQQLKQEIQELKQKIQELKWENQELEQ
The test can be described thus: two-hybrid library CCNG1.

A further test deals with T9, 4H850-bN.
T9 chain: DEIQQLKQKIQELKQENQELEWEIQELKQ
The test can be described thus: two-hybrid library CCNG1.

For another test, the target named is T10, 4H906-bN.
T10 chain: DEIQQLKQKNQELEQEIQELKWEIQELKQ
The experiment in a line: two-hybrid library CCNG1.

Another test deals with T11, P6SC1.
T11 chain: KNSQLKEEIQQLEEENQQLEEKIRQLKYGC
The experiment in a line: two-hybrid library CC1. The conditions noted are these: mean of both orientations.

A further test has as its target T12, P6SC2.
T12 chain: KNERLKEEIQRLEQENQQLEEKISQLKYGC
The experiment in a line: two-hybrid library CC1. The note with it: mean of both orientations.

The target in a further test is T13, P6.
T13 chain: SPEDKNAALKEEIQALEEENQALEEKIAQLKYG
The test can be described thus: two-hybrid library CC1.

For a further test, the target named is T14, P6mS.
T14 chain: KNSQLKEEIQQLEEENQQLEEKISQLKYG
The test can be described thus: two-hybrid library CC1. The note with it: mean of both orientations.

The target of another test is T15, P7.
T15 chain: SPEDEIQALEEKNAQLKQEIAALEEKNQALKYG
The experiment in a line: two-hybrid library CC1. The note with it: mean of both orientations.

For a further test, the target named is T16, P7mS.
T16 chain: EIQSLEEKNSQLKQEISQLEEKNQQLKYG
The test can be described thus: two-hybrid library CC1. The note with it: mean of both orientations.

The target in another test is T17, P8.
T17 chain: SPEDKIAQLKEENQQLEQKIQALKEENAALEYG
The test can be described thus: two-hybrid library CC1. The conditions noted are these: mean of both orientations.

The next test has as its target T18, P8mS.
T18 chain: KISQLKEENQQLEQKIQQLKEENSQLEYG
The experiment in a line: two-hybrid library CC1. The note with it: mean of both orientations.

The next test addresses T19, P9.
T19 chain: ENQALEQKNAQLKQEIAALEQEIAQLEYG
The experiment in a line: two-hybrid library CC1. The note with it: mean of both orientations.

B1: 4H3414-bN (peptide)
chain: DKNQQLEQKIQELKQENQELEWKIQELKQ
In the case of B1, the interaction score with 4H3414-bN is -0.0983; with 4H3631-bN, -1.25; with 4H3638-bN it was -1.41; with 4H3817-bN, -0.982; with 4H3974-bN, -0.178; with 4H570-bN it was -0.223. Besides, the interaction score with 4H584-bN is -1.04; with 4H619-bN, -2.07; in the test with 4H850-bN it was 0.132; in the test with 4H906-bN it was -1.04.

B2: P6 (peptide)
chain: SPEDKNAALKEEIQALEEENQALEEKIAQLKYG
Consider B2, for which the interaction score is -2.74 with P6SC1; -2.56 with P6SC2; -2.71 with P6; -2.76 with P6mS; -0.929 in the test with P7; -2.6 in the test with P7mS. Moreover, the results for the interaction score with P8, with P8mS and in the test with P9 were -2.37, -2.62 and -1.98, respectively.
